Test results reported in patent publication US20080070298, “Promoter of Synoviolin Gene” (published 2008).

Columns and labels:
Details in all cases: label: 32P
Ets1 = target: T1, Ets1 (UniProt P27577 P27577:1-440); test: EMSA; in vitro translated; supershift
T1 sequence: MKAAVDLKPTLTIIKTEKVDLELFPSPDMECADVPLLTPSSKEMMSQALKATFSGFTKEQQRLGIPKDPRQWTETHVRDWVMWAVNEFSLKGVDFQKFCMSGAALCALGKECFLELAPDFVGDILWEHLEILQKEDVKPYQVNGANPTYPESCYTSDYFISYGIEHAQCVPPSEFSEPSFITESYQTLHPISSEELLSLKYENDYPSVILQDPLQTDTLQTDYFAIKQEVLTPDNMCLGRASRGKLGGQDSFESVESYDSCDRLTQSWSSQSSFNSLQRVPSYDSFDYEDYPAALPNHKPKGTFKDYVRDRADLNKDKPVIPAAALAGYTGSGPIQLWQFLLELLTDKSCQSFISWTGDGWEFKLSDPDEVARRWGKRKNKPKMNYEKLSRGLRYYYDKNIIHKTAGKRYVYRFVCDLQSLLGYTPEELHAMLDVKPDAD
Procedure: (§1) Next, T4 […] kinase, buffer andy γ³²P were mixed and the mixture was reacted for 30 minutes at room temperature. The reaction solution was passed through a Micro Spin G-25 column (Amersham Pharmacia Biotech), and the collected column fraction was centrifuged to obtain labeled probes. Those having radioactivity of 30000 cpm or more per 1 µl were used.
(§2) 10 μg of protein was mixed with reaction buffer and probe, and reacted for 30 minutes at room temperature. For purposes of supershift, they were reacted for 1 hour at 4° C. before being reacted with the probe. The reaction solution was electrophoresed for about 3 hours at 100v, 50 mA in non-denatured gel. The gel was dried, and analyzed by autoradiography using a Fujii BAS2000.

Fli-1 = target: T2, Fli-1 (UniProt P26323 P26323:1-452); test: EMSA; in vitro translated; supershift
T2 sequence: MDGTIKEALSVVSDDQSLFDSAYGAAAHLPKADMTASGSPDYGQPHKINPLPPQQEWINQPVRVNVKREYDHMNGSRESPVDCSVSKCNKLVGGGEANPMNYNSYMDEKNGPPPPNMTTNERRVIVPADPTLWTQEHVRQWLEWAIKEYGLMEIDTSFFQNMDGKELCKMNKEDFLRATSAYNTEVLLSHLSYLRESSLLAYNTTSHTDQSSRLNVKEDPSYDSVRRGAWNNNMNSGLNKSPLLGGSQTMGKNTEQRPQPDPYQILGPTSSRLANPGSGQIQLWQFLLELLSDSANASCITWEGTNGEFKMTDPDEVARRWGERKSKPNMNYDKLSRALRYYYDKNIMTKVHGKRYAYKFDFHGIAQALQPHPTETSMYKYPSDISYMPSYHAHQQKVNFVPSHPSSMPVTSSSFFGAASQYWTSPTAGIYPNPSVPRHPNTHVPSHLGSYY
Procedure: as §1, §2

GABPα = target: T3, GABPα (UniProt Q00422 Q00422:1-454); test: EMSA; in vitro translated; supershift
T3 sequence: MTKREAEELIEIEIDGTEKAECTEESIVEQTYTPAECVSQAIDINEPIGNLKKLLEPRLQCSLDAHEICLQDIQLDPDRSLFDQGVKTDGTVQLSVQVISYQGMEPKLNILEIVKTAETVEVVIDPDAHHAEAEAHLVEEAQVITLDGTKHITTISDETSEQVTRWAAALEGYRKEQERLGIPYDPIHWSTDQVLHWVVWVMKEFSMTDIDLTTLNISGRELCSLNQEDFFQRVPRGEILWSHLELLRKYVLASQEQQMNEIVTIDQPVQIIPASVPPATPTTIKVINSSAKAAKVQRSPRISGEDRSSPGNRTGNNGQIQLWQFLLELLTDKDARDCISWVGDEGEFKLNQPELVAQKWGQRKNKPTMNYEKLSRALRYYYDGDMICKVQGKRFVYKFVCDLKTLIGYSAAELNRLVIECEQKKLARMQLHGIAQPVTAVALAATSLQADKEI
Procedure: as §1, §2

GABPα/GABPβ complex = GABPα/GABPβ complex (UniProt Q00422;Q00420 Q00422:1-454,Q00420:2-383); test: EMSA; new complex bands on adding GABPβ to GABPα; GABPβ antibody interferes with complex a
GABPα/GABPβ complex, sequence (Q00420 2-383, one chain of several): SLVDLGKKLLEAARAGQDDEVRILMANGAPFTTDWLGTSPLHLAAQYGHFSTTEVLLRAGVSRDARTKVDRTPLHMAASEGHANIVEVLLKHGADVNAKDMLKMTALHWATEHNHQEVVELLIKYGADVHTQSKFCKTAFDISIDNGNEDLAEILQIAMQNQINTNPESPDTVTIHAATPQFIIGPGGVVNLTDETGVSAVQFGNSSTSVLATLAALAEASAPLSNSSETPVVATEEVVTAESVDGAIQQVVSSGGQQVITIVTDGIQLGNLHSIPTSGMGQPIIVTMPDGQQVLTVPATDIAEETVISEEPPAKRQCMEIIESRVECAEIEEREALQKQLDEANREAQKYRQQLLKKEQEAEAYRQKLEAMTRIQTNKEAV
Procedure: as §1, §2

Measured: binding result

B1: EBS WT (-85 to -70) (dsDNA)
DNA 1: GCGCCGCCGGAAGTGA
DNA 2: TCACTTCCGGCGGCGC
binds: all assays above
